What was measured:
[1] = target: Recombinant Human TNF-α/TNFSF1A (human, UniProt P01375 77-233); assay: cell-based or functional assay
Recombinant Human β-NGF = Recombinant Human β-NGF (human, UniProt P01138 122-241); assay: cell-based or functional assay
Chain of Recombinant Human β-NGF (P01138 122-241 limits assumed): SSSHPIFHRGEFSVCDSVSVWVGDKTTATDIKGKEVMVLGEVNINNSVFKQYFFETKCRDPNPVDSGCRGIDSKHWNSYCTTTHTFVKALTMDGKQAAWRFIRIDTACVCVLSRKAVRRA

Chain of Recombinant Human TNF-α/TNFSF1A (P01375 77-233 limits assumed): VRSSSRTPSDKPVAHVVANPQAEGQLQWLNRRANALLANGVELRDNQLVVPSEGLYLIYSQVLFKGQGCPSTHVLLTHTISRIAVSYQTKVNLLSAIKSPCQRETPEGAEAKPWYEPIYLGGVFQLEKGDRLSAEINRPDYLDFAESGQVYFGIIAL

Row | Binder | N-Terminal VD huTNFα Neutralization Assay IC50 [1] [nM] | C-Terminal VD NGF Neutralization Assay IC50 (Recombinant Human β-NGF) [nM] | C-Terminal VD huTNFα Neutralization Assay IC50 [1] [nM] | N-Terminal VD NGF Neutralization Assay IC50 (Recombinant Human β-NGF) [nM]
1 | DVD2814 (bispecific antibody, IgG1) VH: EVQLVQSGAEVKKPGASVKVSCKASGYTFANYGIIWVRQAPGQGLEWMGWINTYTGKPTYAQKFQGRVTMTTDTSTSTAYMELSSLRSEDTAVYYCARKLFTTMDVTDNAMDYWGQGTTVTVSSASTKGPEVQLVESGGGLVQPGGSLRLSCAASGFSLTNNNVNWVRQAPGKGLEWVGGVWAGGATDYNSALKSRFTISRDNSKNTAYLQMNSLRAEDTAVYYCARDGGYSSSTLYAMDAWGQGTLVTVSS VL: DIQMTQSPSSLSASVGDRVTITCRASQDISQYLNWYQQKPGKAPKLLIYYTSRLQSGVPSRFSGSGSGTDFTLTISSLQPEDFATYFCQQGNTWPPTFGQGTKLEIKRTVAAPDIQMTQSPSSLSASVGDRVTITCRASEDIYNALAWYQQKPGKAPKLLIYNTDTLHTGVPSRFSGSGSGTDYTLTISSLQPEDFATYFCQHYFHYPRTFGQGTKVEIKR | 0.012 | 0.019 | – | –
2 | DVD2816 (bispecific antibody, IgG1) VH: EVQLVQSGAEVKKPGASVKVSCKASGYTFANYGIIWVRQAPGQGLEWMGWINTYTGKPTYAQKFQGRVTMTTDTSTSTAYMELSSLRSEDTAVYYCARKLFTTMDVTDNAMDYWGQGTTVTVSSASTKGPEVQLVESGGGLVQPGGSLRLSCAASGFSLTNNNVNWVRQAPGKGLEWVGGVWAGGATDYNSALKSRFTISRDNSKNTAYLQMNSLRAEDTAVYYCARDGGYSSSTLYAMDAWGQGTLVTVSS VL: DIQMTQSPSSLSASVGDRVTITCRASQDISQYLNWYQQKPGKAPKLLIYYTSRLQSGVPSRFSGSGSGTDFTLTISSLQPEDFATYFCQQGNTWPPTFGQGTKLEIKRTVAAPSVFIFPPDIQMTQSPSSLSASVGDRVTITCRASEDIYNALAWYQQKPGKAPKLLIYNTDTLHTGVPSRFSGSGSGTDYTLTISSLQPEDFATYFCQHYFHYPRTFGQGTKVEIKR | 0.009 | 2.89 | – | –
3 | DVD3039 (bispecific antibody, IgG1) VH: EVQLVQSGAEVKKPGASVKVSCKASGYTFNNYGIIWVRQAPGQGLEWMGWINTYTGKPTYAQKFQGRVTMTTDTSTSTAYMELSSLRSEDTAVYYCARKLFNTVAVTDNAMDYWGQGTTVTVSSASTKGPEVQLVESGGGLVQPGGSLRLSCAASGFSLTNNNVNWVRQAPGKGLEWVGGVWAGGATDYNSALKSRFTISRDNSKNTAYLQMNSLRAEDTAVYYCARDGGYSSSTLYAMDAWGQGTLVTVSS VL: DIQMTQSPSSLSASVGDRVTITCRASQDIENYLNWYQQKPGKAPKLLIYYTSRLQSGVPSRFSGSGSGTDFTLTISSLQPEDFATYFCQQGNTQPPTFGQGTKLEIKRTVAAPDIQMTQSPSSLSASVGDRVTITCRASEDIYNALAWYQQKPGKAPKLLIYNTDTLHTGVPSRFSGSGSGTDYTLTISSLQPEDFATYFCQHYFHYPRTFGQGTKVEIKR | 0.012 | 0.088 | – | –
4 | DVD3041 (bispecific antibody, IgG1) VH: EVQLVQSGAEVKKPGASVKVSCKASGYTFNNYGIIWVRQAPGQGLEWMGWINTYTGKPTYAQKFQGRVTMTTDTSTSTAYMELSSLRSEDTAVYYCARKLFNTVAVTDNAMDYWGQGTTVTVSSASTKGPEVQLVESGGGLVQPGGSLRLSCAASGFSLTNNNVNWVRQAPGKGLEWVGGVWAGGATDYNSALKSRFTISRDNSKNTAYLQMNSLRAEDTAVYYCARDGGYSSSTLYAMDAWGQGTLVTVSS VL: DIQMTQSPSSLSASVGDRVTITCRASQDIENYLNWYQQKPGKAPKLLIYYTSRLQSGVPSRFSGSGSGTDFTLTISSLQPEDFATYFCQQGNTQPPTFGQGTKLEIKRTVAAPSVFIFPPDIQMTQSPSSLSASVGDRVTITCRASEDIYNALAWYQQKPGKAPKLLIYNTDTLHTGVPSRFSGSGSGTDYTLTISSLQPEDFATYFCQHYFHYPRTFGQGTKVEIKR | 0.006 | > 10 | – | –
5 | DVD3042 (bispecific antibody, IgG1) VH: EVQLVQSGAEVKKPGASVKVSCKASGYTFNNYGIIWVRQAPGQGLEWMGWINTYTGKPTYAQKFQGRVTMTTDTSTSTAYMELSSLRSEDTAVYYCARKLFNTVAVTDNAMDYWGQGTTVTVSSASTKGPSVFPLAPEVQLVESGGGLVQPGGSLRLSCAASGFSLTNNNVNWVRQAPGKGLEWVGGVWAGGATDYNSALKSRFTISRDNSKNTAYLQMNSLRAEDTAVYYCARDGGYSSSTLYAMDAWGQGTLVTVSS VL: DIQMTQSPSSLSASVGDRVTITCRASQDIENYLNWYQQKPGKAPKLLIYYTSRLQSGVPSRFSGSGSGTDFTLTISSLQPEDFATYFCQQGNTQPPTFGQGTKLEIKRTVAAPDIQMTQSPSSLSASVGDRVTITCRASEDIYNALAWYQQKPGKAPKLLIYNTDTLHTGVPSRFSGSGSGTDYTLTISSLQPEDFATYFCQHYFHYPRTFGQGTKVEIKR | 0.006 | > 10 | – | –
6 | DVD2817 (bispecific antibody, IgG1) VH: EVQLVQSGAEVKKPGASVKVSCKASGYTFANYGIIWVRQAPGQGLEWMGWINTYTGKPTYAQKFQGRVTMTTDTSTSTAYMELSSLRSEDTAVYYCARKLFTTMDVTDNAMDYWGQGTTVTVSSASTKGPSVFPLAPEVQLVESGGGLVQPGGSLRLSCAASGFSLTNNNVNWVRQAPGKGLEWVGGVWAGGATDYNSALKSRFTISRDNSKNTAYLQMNSLRAEDTAVYYCARDGGYSSSTLYAMDAWGQGTLVTVSS VL: DIQMTQSPSSLSASVGDRVTITCRASQDISQYLNWYQQKPGKAPKLLIYYTSRLQSGVPSRFSGSGSGTDFTLTISSLQPEDFATYFCQQGNTWPPTFGQGTKLEIKRTVAAPDIQMTQSPSSLSASVGDRVTITCRASEDIYNALAWYQQKPGKAPKLLIYNTDTLHTGVPSRFSGSGSGTDYTLTISSLQPEDFATYFCQHYFHYPRTFGQGTKVEIKR | 0.013 | 1.27 | – | –
7 | DVD3038 (bispecific antibody, IgG1) VH: EVQLVQSGAEVKKPGASVKVSCKASGYTFNNYGIIWVRQAPGQGLEWMGWINTYTGKPTYAQKFQGRVTMTTDTSTSTAYMELSSLRSEDTAVYYCARKLFNTVAVTDNAMDYWGQGTTVTVSSGGGGSGGGGSEVQLVESGGGLVQPGGSLRLSCAASGFSLTNNNVNWVRQAPGKGLEWVGGVWAGGATDYNSALKSRFTISRDNSKNTAYLQMNSLRAEDTAVYYCARDGGYSSSTLYAMDAWGQGTLVTVSS VL: DIQMTQSPSSLSASVGDRVTITCRASQDIENYLNWYQQKPGKAPKLLIYYTSRLQSGVPSRFSGSGSGTDFTLTISSLQPEDFATYFCQQGNTQPPTFGQGTKLEIKRGGSGGGGSGDIQMTQSPSSLSASVGDRVTITCRASEDIYNALAWYQQKPGKAPKLLIYNTDTLHTGVPSRFSGSGSGTDYTLTISSLQPEDFATYFCQHYFHYPRTFGQGTKVEIKR | 0.002 | 0.093 | – | –
8 | DVD2819 (bispecific antibody, IgG1) VH: EVQLVESGGGLVQPGGSLRLSCAASGFSLTNNNVNWVRQAPGKGLEWVGGVWAGGATDYNSALKSRFTISRDNSKNTAYLQMNSLRAEDTAVYYCARDGGYSSSTLYAMDAWGQGTLVTVSSASTKGPEVQLVQSGAEVKKPGASVKVSCKASGYTFANYGIIWVRQAPGQGLEWMGWINTYTGKPTYAQKFQGRVTMTTDTSTSTAYMELSSLRSEDTAVYYCARKLFTTMDVTDNAMDYWGQGTTVTVSS VL: DIQMTQSPSSLSASVGDRVTITCRASEDIYNALAWYQQKPGKAPKLLIYNTDTLHTGVPSRFSGSGSGTDYTLTISSLQPEDFATYFCQHYFHYPRTFGQGTKVEIKRTVAAPDIQMTQSPSSLSASVGDRVTITCRASQDISQYLNWYQQKPGKAPKLLIYYTSRLQSGVPSRFSGSGSGTDFTLTISSLQPEDFATYFCQQGNTWPPTFGQGTKLEIKR | – | – | 0.279 | 0.006
9 | DVD2822 (bispecific antibody, IgG1) VH: EVQLVESGGGLVQPGGSLRLSCAASGFSLTNNNVNWVRQAPGKGLEWVGGVWAGGATDYNSALKSRFTISRDNSKNTAYLQMNSLRAEDTAVYYCARDGGYSSSTLYAMDAWGQGTLVTVSSASTKGPSVFPLAPEVQLVQSGAEVKKPGASVKVSCKASGYTFANYGIIWVRQAPGQGLEWMGWINTYTGKPTYAQKFQGRVTMTTDTSTSTAYMELSSLRSEDTAVYYCARKLFTTMDVTDNAMDYWGQGTTVTVSS VL: DIQMTQSPSSLSASVGDRVTITCRASEDIYNALAWYQQKPGKAPKLLIYNTDTLHTGVPSRFSGSGSGTDYTLTISSLQPEDFATYFCQHYFHYPRTFGQGTKVEIKRTVAAPDIQMTQSPSSLSASVGDRVTITCRASQDISQYLNWYQQKPGKAPKLLIYYTSRLQSGVPSRFSGSGSGTDFTLTISSLQPEDFATYFCQQGNTWPPTFGQGTKLEIKR | – | – | 0.107 | 0.003
10 | DVD2821 (bispecific antibody, IgG1) VH: EVQLVESGGGLVQPGGSLRLSCAASGFSLTNNNVNWVRQAPGKGLEWVGGVWAGGATDYNSALKSRFTISRDNSKNTAYLQMNSLRAEDTAVYYCARDGGYSSSTLYAMDAWGQGTLVTVSSASTKGPEVQLVQSGAEVKKPGASVKVSCKASGYTFANYGIIWVRQAPGQGLEWMGWINTYTGKPTYAQKFQGRVTMTTDTSTSTAYMELSSLRSEDTAVYYCARKLFTTMDVTDNAMDYWGQGTTVTVSS VL: DIQMTQSPSSLSASVGDRVTITCRASEDIYNALAWYQQKPGKAPKLLIYNTDTLHTGVPSRFSGSGSGTDYTLTISSLQPEDFATYFCQHYFHYPRTFGQGTKVEIKRTVAAPSVFIFPPDIQMTQSPSSLSASVGDRVTITCRASQDISQYLNWYQQKPGKAPKLLIYYTSRLQSGVPSRFSGSGSGTDFTLTISSLQPEDFATYFCQQGNTWPPTFGQGTKLEIKR | – | – | 0.09 | 0.011
11 | DVD2818 (bispecific antibody, IgG1) VH: EVQLVESGGGLVQPGGSLRLSCAASGFSLTNNNVNWVRQAPGKGLEWVGGVWAGGATDYNSALKSRFTISRDNSKNTAYLQMNSLRAEDTAVYYCARDGGYSSSTLYAMDAWGQGTLVTVSSGGGGSGGGGSEVQLVQSGAEVKKPGASVKVSCKASGYTFANYGIIWVRQAPGQGLEWMGWINTYTGKPTYAQKFQGRVTMTTDTSTSTAYMELSSLRSEDTAVYYCARKLFTTMDVTDNAMDYWGQGTTVTVSS VL: DIQMTQSPSSLSASVGDRVTITCRASEDIYNALAWYQQKPGKAPKLLIYNTDTLHTGVPSRFSGSGSGTDYTLTISSLQPEDFATYFCQHYFHYPRTFGQGTKVEIKRGGSGGGGSGDIQMTQSPSSLSASVGDRVTITCRASQDISQYLNWYQQKPGKAPKLLIYYTSRLQSGVPSRFSGSGSGTDFTLTISSLQPEDFATYFCQQGNTWPPTFGQGTKLEIKR | – | – | 0.072 | 0.003

— patent US20140271457A1 (AbbVie / Abbott, published 2014)
